In patent publication US6946255 (KO OKUMURA, dated 2005):

T1: human Fas expressed on WR19L cells (human, UniProt P25445 26-335)
T1 sequence (looked up): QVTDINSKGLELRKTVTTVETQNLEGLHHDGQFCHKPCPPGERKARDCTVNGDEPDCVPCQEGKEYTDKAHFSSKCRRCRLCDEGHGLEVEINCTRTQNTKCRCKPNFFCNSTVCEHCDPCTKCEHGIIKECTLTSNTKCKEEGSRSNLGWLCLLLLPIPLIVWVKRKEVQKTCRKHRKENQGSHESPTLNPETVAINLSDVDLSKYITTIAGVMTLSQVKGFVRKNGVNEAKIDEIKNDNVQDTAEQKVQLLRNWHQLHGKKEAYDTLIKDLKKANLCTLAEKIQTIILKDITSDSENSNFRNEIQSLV

T2: 10-mer peptide consisting of residues 1 to 10 of SEQ ID NO: 31 (immobilized on the tip of a Pepset pin)
T2 construct: One of 44 overlapping 10-mer peptides of the extracellular domain of the Fas ligand
T2 peptide: LSHKVYMRNS

T3: 10-mer peptide consisting of residues 5 to 14 of SEQ ID NO: 31 (immobilized on the tip of a Pepset pin)
T3 construct: One of 44 overlapping 10-mer peptides of the extracellular domain of the Fas ligand
T3 peptide: VYMRNSKYPQ

T4: monkey Fas ligand on activated rhesus monkey peripheral blood mononuclear cell surfaces (rhesus monkey, UniProt P63307 1-280)
T4 construct: whole, on cells; also called Fas ligand on monkey cell surfaces
T4 sequence (looked up): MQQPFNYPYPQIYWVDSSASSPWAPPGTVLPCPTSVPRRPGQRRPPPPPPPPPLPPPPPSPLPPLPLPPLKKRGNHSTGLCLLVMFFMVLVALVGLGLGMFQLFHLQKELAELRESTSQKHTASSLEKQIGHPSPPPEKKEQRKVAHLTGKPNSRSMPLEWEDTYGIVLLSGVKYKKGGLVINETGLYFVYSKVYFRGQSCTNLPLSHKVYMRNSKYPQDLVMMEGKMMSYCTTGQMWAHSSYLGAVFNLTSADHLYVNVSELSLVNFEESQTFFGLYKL

B1: soluble human Fas ligand molecule (ligand, UniProt P48023 130-281, looked up)
chain: QIGHPSPPPEKKELRKVAHLTGKSNSRSMPLEWEDTYGIVLLSGVKYKKGGLVINETGLYFVYSKVYFRGQSCNNLPLSHKVYMRNSKYPQDLVMMEGKMMSYCTTGQMWARSSYLGAVFNLTSADHLYVNVSELSLVNFEESQTFFGLYKL

Tests used:
[1] = target: T1, human Fas expressed on WR19L cells; assay: cell-based or functional assay
[2] = target: B1; assay: cell-based or functional assay
[3] = target: T2, 10-mer peptide consisting of residues 1 …; assay: Pepset pin ELISA, HRP-labeled anti-mouse IgG
Method: (§1) ⑨ After the pin of the Pepset was taken out of the well of the plate, 2N H_2SO_4 was added in an amount of 50 μl to each well to stop the reaction.

[4] = target: T3, 10-mer peptide consisting of residues 5 …; assay: Pepset pin ELISA, HRP-labeled anti-mouse IgG
Method: as §1

[5] = target: T4, monkey Fas ligand on activated rhesus …; assay: flow cytometry (FACScan) on activated rhesus monkey PBMC, 1 µg antibody, PE-anti-mouse Ig's
Method: Five milliliters of peripheral blood were collected from a rhesus monkey using a heparinized syringe. After the blood was diluted to ½ with PBS, its lymphocyte fraction was recovered by the specific gravity centrifugation using Separate L. These monkey peripheral blood mononuclear lymphocytes were cultured for 2 days in a 10% FCS•RPMI 1640 medium containing 10 μg/ml of Con A to activate them. Thereafter, the cells were recovered by centrifugation, and then cultured further for a week in a 10% FCS•RPMI 1640 medium containing 50 units/ml of human IL-2 (interleukin-2). After a week, PMA and ionomycin were added to give concentrations of 10 ng/ml and 500 ng/ml, respectively, to activate the cells further for 4 hours. At this time, BB94 (matrix protease inhibitor) was added in a proportion of 10 μM at the same time. The Fas ligand was expressed in a large amount on the lymphocytes by these activation processes. After 4 hours, the cell were collected to analyze them by flow cytometry. After collecting the cells, the number of cells was first counted to adjust the cells to 1 ×10^6 cells/ml with PBS. Thereafter, the cells were placed in portions of 1 ml into tubes (Farcon No-2008), and 100 μl of control PBS, 1 μg of NOK1 antibody (100 μl of one diluted to a concentration of 10 μg/ml with PBS), 1 μg of monoclonal antibody NOK2 (similarly, 100 μl at a concentration of 10 μg/ml) and 1 μg of monoclonal antibody NOK3 (similarly, 100 μl at a concentration of […]) were separately placed in the tubes, thereby conducting a reaction for 30 minutes on an ice bath.
After the respective cultures were centrifugally washed twice with PBS. 1 µl of PE-anti-mouse Ig's were placed in the tubes to conduct a reaction further for 30 minutes on the ice bath. After the cultures were washed with PBS and separately suspended in 200 µl of PBS, they were analyzed by FACScan.

Row | binding result [3] | binding result [4] | binding result [5] | Binder | Survival rate [1] [%] | Survival rate [2] [%]
1 | – | – | – | B1 | 3.5 | –
2 | – | – | – | monoclonal antibody NOK5 (produced by Hybridoma NOK5, FERM BP-5048) (antibody, V domains shown) VH: VQLQESGAEPAKPGASVKMSCKASGYTFTTYWMHWVKQRPGQGLEWIGYINPSSGYTEYNQKFKDKATLTADKSSSTAYMQLISLTSEDSAVYYCARRGNYYYFDYWGQGTTVTVSS VL: DVLMTQTPKFLPVSAGDRVTMTCKASQSVGNNVAWYQQKPGQSPKLLIYYTSNRYTGVPDRFTGSGSGTDFTFTISSVQVEDLAVYFCQQHYSSPYTFGSGTKLE | – | 98.2
3 | binds | binds | binds | monoclonal antibody NOK2 (produced by Hybridoma NOK2, FERM BP-5045) (antibody, V domains shown, also called NOK2 antibody) VH: VQLQQSGAELVRPGTSVKMSCKAAGYTFTNYWIGWVKQRPGHGLEWIGYLYPGGLYTNYNEKFKGKATLTADTSSSTAYMQLSSLTSEDSAIYYCARYRDYDYAMDYWGQGTTVTVSS VL: DVLMTQTPLSLPVNIGDQASISCKSTKSLLNSDGFTYLGWCLQKPGQSPQLLIYLVSNRFSGVPDRFSGSGSGTDFTLKISRVEAEDLGVYYCFQSNYLPLTFGSGTKLEIKR | – | 105
4 | – | – | – | monoclonal antibody NOK4 (produced by Hybridoma NOK4, FERM BP-5047) (antibody, V domains shown) VH: VQLQESGPGLVKPSQSLSLTCSVTGYSITSGYYWNWIRQFPGNKLEWMGYISYDGSNNYNPSLKNRISITRDTSKNQFFLKLNSVTTEDTATYYCAVYYYDGSSFDYWGQGTTVTVSS VL: DIVLTQSPASLAVSLRQRATISCRASEGVDSYGISFMHWYQQKPGQPPKLLIYRASYLKSGVPARFSGSGSRTDFTLTIDPVEADDAATYYCQQNNEDPWTFGGGTKLEIKR | – | 110
5 | – | – | binds | monoclonal antibody NOK3 (produced by Hybridoma NOK3, FERM BP-5046) (antibody, V domains shown, also called NOK3 antibody) VH: VKLQESGPELVKPGASVKISCKASGYAFSSSWMNWVKQRPGKGLEWIGRIYPVNGDTNYNGKFKGKATLTADKSSSTAYMQLSSLTSEDSAVYFCATDGYWYFDVWGQGTTVTVSS VL: NIVMTQSPKSMSMSVGERVTLSCKASENVDIYVSWYQQKPEQSPKLLIYGTSNRYTGVPDRFTGSGSATDFTLTISNVQAEDLSDYYCVQSYSYPWTFGGGTKLEIKR | – | 101
6 | – | – | binds | monoclonal antibody NOK1 (produced by Hybridoma NOK1, FERM BP-5044) (antibody, V domains shown, Used as hybridoma culture supernatant, as antibody purified from ascites, biotin-labelled, or coupled to Sepharose beads; also called NOK1 antibody; biotinized monoclonal antibody NOK1) VH: VQLQESGPELVKPGASVKISCKASGYAFSSSWMNWVKQRPGKGLEWIGRIYPGDGDTNDNGKFKGKATLTADKSSSTAYMQLSSLTSEDSAVYFCARSYYYDGSPWFTYWGQGTTVTVSS VL: DIQMTQSPSSLSASLGDRVTISCRASQDISNYLNWYQQKPDGTVKLLIYYTSRLHSGVPSRFSGSGSGTDYSLTISNLEPEDIATYFCQQYSEFPWTFGGGTKLEIKR | – | 99.3
